Test system: HuR
Assay: SPR
Conditions: SPR: 25 mM Tris pH 7.5, 100 mM KCl, 7 mM b-mercaptoethanol, 10% glycerol, 25 C, UV crosslinking: 5 mM HEPES pH 7.6, 25 mM KCl, 2 mM MgCl2, 3.8% glycerol

Substance	Kd [nM]
SARS-CoV-2 5'-UTR C241U, biotin (SPR)	339
SARS-CoV-2 5'-UTR G210U+C241U, biotin (SPR)	72.9

Source: article PMC13185593
